Tests used:
P8SHb = target: T1, P8SHb; assay: two-hybrid library CCNG1;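 further: natural log of median RNA to DNA barcode read ratio; higher means stronger binding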
T1 chain: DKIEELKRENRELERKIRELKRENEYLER

P5SHb = target: T2, P5SHb; assay: two-hybrid library CCNG1;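 further: natural log of median RNA to DNA barcode read ratio; higher means stronger binding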
T2 chain: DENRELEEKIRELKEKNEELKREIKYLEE

P4SHb = target: T3, P4SHb; assay: two-hybrid library CCNG1;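 further: natural log of median RNA to DNA barcode read ratio; higher means stronger binding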
T3 chain: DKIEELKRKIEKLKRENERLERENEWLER

P3SHb = target: T4, P3SHb; assay: two-hybrid library CCNG1;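 further: natural log of median RNA to DNA barcode read ratio; higher means stronger binding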
T4 chain: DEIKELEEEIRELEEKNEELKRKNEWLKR

P9SHb = target: T5, P9SHb; assay: two-hybrid library CCNG1
T5 chain: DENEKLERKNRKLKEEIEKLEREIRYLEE

P6SHb = target: T6, P6SHb; assay: two-hybrid library CCNG1
T6 chain: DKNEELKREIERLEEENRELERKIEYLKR

P2SHb = target: T7, P2SHb; assay: two-hybrid library CCNG1
T7 chain: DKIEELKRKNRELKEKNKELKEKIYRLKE

P7SHb = target: T8, P7SHb; assay: two-hybrid library CCNG1
T8 chain: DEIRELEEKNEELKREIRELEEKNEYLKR

P1SHb = target: T9, P1SHb; assay: two-hybrid library CCNG1
T9 chain: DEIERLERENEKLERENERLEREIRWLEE

APC2375-AA = target: T10, APC2375-AA; assay: two-hybrid library CCmax; details: mean of both orientations
T10 chain: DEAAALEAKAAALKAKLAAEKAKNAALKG

APC9182-AA = target: T11, APC9182-AA; assay: two-hybrid library CCmax; details: mean of both orientations
T11 chain: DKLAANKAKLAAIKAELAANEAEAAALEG

APC9291-AA = target: T12, APC9291-AA; assay: two-hybrid library CCmax; details: mean of both orientations
T12 chain: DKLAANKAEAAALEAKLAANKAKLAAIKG

APC1987-AA = target: T13, APC1987-AA; assay: two-hybrid library CCmax
T13 chain: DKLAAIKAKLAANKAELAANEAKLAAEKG

APC7524-AA = target: T14, APC7524-AA; assay: two-hybrid library CCmax; details: mean of both orientations
T14 chain: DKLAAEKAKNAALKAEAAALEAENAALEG

APC3881-AA = target: T15, APC3881-AA; assay: two-hybrid library CCmax; details: mean of both orientations
T15 chain: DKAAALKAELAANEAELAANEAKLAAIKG

APC3354-AA = target: T16, APC3354-AA; assay: two-hybrid library CCmax; details: mean of both orientations
T16 chain: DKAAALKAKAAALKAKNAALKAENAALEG

APC2724-AA = target: T17, APC2724-AA; assay: two-hybrid library CCmax; details: mean of both orientations
T17 chain: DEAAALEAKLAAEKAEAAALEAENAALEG

APC8516-AA = target: T18, APC8516-AA; assay: two-hybrid library CCmax; details: mean of both orientations
T18 chain: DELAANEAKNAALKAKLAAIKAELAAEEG

APC2474-AA = target: T19, APC2474-AA; assay: two-hybrid library CCmax; details: mean of both orientations
T19 chain: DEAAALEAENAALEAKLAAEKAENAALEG

APC2257-AA = target: T20, APC2257-AA; assay: two-hybrid library CCmax; details: mean of both orientations
T20 chain: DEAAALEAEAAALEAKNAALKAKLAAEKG

APC5531-AA = target: T21, APC5531-AA; assay: two-hybrid library CCmax; details: mean of both orientations
T21 chain: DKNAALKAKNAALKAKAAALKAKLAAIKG

APC8401-AA = target: T22, APC8401-AA; assay: two-hybrid library CCmax; details: mean of both orientations
T22 chain: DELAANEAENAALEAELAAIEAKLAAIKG

APC2543-AA = target: T23, APC2543-AA; assay: two-hybrid library CCmax; details: mean of both orientations
T23 chain: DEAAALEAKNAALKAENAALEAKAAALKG

APC3323-AA = target: T24, APC3323-AA; assay: two-hybrid library CCmax; details: mean of both orientations
T24 chain: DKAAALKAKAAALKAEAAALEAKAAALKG

APC2981-AA = target: T25, APC2981-AA; assay: two-hybrid library CCmax; details: mean of both orientations
T25 chain: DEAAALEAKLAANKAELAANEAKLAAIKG

APC4100-AA = target: T26, APC4100-AA; assay: two-hybrid library CCmax; details: mean of both orientations
T26 chain: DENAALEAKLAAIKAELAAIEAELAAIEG

APC542-AA = target: T27, APC542-AA; assay: two-hybrid library CCmax; details: mean of both orientations
T27 chain: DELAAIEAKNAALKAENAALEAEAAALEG

APC222-AA = target: T28, APC222-AA; assay: two-hybrid library CCmax; details: mean of both orientations
T28 chain: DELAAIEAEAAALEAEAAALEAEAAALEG

APC3265-AA = target: T29, APC3265-AA; assay: two-hybrid library CCmax; details: mean of both orientations
T29 chain: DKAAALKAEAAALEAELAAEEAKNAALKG

APC5009-AA = target: T30, APC5009-AA; assay: two-hybrid library CCmax; details: mean of both orientations
T30 chain: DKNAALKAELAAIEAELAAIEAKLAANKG

APC2556-AA = target: T31, APC2556-AA; assay: two-hybrid library CCmax; details: mean of both orientations
T31 chain: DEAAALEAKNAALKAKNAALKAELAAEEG

APC6088-AA = target: T32, APC6088-AA; assay: two-hybrid library CCmax; details: mean of both orientations
T32 chain: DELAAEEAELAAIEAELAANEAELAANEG

APC9141-AA = target: T33, APC9141-AA; assay: two-hybrid library CCmax; details: mean of both orientations
T33 chain: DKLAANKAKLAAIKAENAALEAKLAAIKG

APC2811-AA = target: T34, APC2811-AA; assay: two-hybrid library CCmax; details: mean of both orientations
T34 chain: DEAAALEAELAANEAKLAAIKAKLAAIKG

APC9806-AA = target: T35, APC9806-AA; assay: two-hybrid library CCmax; details: mean of both orientations
T35 chain: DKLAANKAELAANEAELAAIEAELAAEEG

APC4336-AA = target: T36, APC4336-AA; assay: two-hybrid library CCmax; details: mean of both orientations
T36 chain: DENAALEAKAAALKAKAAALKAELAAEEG

DEIERLERENEKLERENERLEREIRWLEE [P1SHb]
interaction score (P8SHb): -0.756
interaction score (P5SHb): -0.59
interaction score (P4SHb): -0.498
interaction score (P3SHb): -1.76
interaction score (P9SHb): -0.505
interaction score (P6SHb): -0.147
interaction score (P2SHb): 1.75
interaction score (P7SHb): -0.298
interaction score (P1SHb): -1.02

DKLAAIKAKLAANKAELAANEAKLAAEKG [APC1987-AA]
interaction score (APC2375-AA): -1.68
interaction score (APC9182-AA): -1.95
interaction score (APC9291-AA): -1.88
interaction score (APC1987-AA): -2.07
interaction score (APC7524-AA): -1.75
interaction score (APC3881-AA): -1.66
interaction score (APC3354-AA): -1.64
interaction score (APC2724-AA): -1.7
interaction score (APC8516-AA): -2.25
interaction score (APC2474-AA): -1.87
interaction score (APC2257-AA): -1.35
interaction score (APC5531-AA): -1.83
interaction score (APC8401-AA): -1.6
interaction score (APC2543-AA): -2.01
interaction score (APC3323-AA): -2.07
interaction score (APC2981-AA): -1.82
interaction score (APC4100-AA): -1.33
interaction score (APC542-AA): -1.67
interaction score (APC222-AA): -1.81
interaction score (APC3265-AA): -1.69
interaction score (APC5009-AA): -1.2
interaction score (APC2556-AA): -1.78
interaction score (APC6088-AA): -1.6
interaction score (APC9141-AA): -1.68
interaction score (APC2811-AA): -1.92
interaction score (APC9806-AA): -1.87
interaction score (APC4336-AA): -1.72

From article PMC10397247
